# Experimental data published in the DeepSol protein solubility set.
# Test: soluble on expression in E. coli; label from the status in PepcDB or PDB records
row,Sequence,soluble on expression in E. coli
1,MVGGMMESYSKFHTILNELKHSAAQFDRQRGEHHRPLFDEVLFHCHGKLLTPCVEEAHSTLQALIREKESGRLTALRAEYLSERLLAQIAALTRELSTQNVRRNEPKPHAYFKKPINELYQELAQHQDWERRLMDLVRDKALLLEQASATEKAAAQQALLQSEQRLNRCREAKIKIEKRITTQERKA,not soluble
2,MGMKFRVVCRKLYDYVRYDLKEIAFPSSLPDPPHIKKRPKLTLKDKWCILKEATRLYGASWVRDIGPDLRPNDYKKVKEEPDIKTEEGSSEPTTVEDLLGALKGGAEKAKPALQRMYMARASNYTDALKNYVESYKEGLKEHLEEEAMGKGHRQGNDATKPPQSPSS,soluble
3,GMIKIAIVGFGTVGQGVAELLIRKREEIEKAIGEFKVTAVADSKSSISGDFSLVEALRMKRETGMLRDDAKAIEVVRSADYDVLIEASVTRVDGGEGVNYIREALKRGKHVVTSNKGPLVAEFHGLMSLAERNGVRLMYEATVGGAMPVVKLAKRYLALCEIESVKGIFNGTCNYILSRMEEERLPYEHILKEAQELGYAEADPSYDVEGIDAALKLVIIANTIGVKASYEDVEVTGITQITPEAFQVAAEKGYTIRLIAEVSREKLKVSPRLVPFHHPLAIKGTMNAAMFKTDTAGSIFVAGRGAGKEETASAILSDLYEIYAGPR,soluble
4,VNPKQPDLGVHVHLVRNVCTVSLDSSGASLDRRGYRTEAGEAPLRETLAAALVEMTGWDGTVPLLDPMCGSGTILVEAALKALNRAPGLIRERFGFQHWPSFDSSLWLRLVTEARQGERTSLESPLLGSDQQADLLSVAAANARRAGVEQHISFTSGDVRGLTPPPAPGIILFNPPYGRRLGDEEGLRVLYRQIGDVLKQRCAGYTAWLLTGGPELAKAVGLRASRRIVLFNGPLECRFLRFDLY,not soluble
5,DKTVKRAVPFKIIKMIKELDLSFEPQLELARDIFLFSFYTRGMSFIDMAHLKKSNLQNGILTYSRKKTGQRLTILWEELMQEIVDKYKDDTSEYLLPILRYCDINDRKQYKLRAKQIGRGLNKIGLRLELKAPLTFYVARHSWASIAQDRKVSTDIIREGLGHDNEKTTHIYLASISTSQIDRANQIILRGL,soluble
6,MSLWKNFNFVTKYFTKRRQRYITKTIAMNQQEFQLREITYQDIKDLLAIEREVYAGELPWTMSAFMAELGSKAPHLYLLAAINGKTVGFIGCRIQGTDAHITNVAVHTAYQGLGLGRSLIEETRIFAKKNRCETLSLEVRMSNVKAQRLYRKIGFVSQTVKKGYYDENNEDALEMIIDLKEEEGHHHHHH,soluble
7,MPTSNTAFLIQNLPASRTAPHYRAGLDPVKGGLALQRSGGRVYISLLMGKRGFLRREASPKEVLEHCLRLAREVAPPTPKGKRGRPWRYSHALYLALLLFRAFFHLTYRETEASLQDLMEGPFPSHQSLARYALKHLDPKLLEALLERLSRELEAHLAPESSPEGEAASDEAPAHLAALSPP,soluble
8,GSHMDTSLAEEVQQTMATLAPNRFFFMSPYRSFTTSGCFARFDEPAVNGDSPDSPFQQKLAALFADAKAQGIKNPVMVGAIPFDPRQPSSLYIPESWQSFSRQEKQASARRFTRSQSLNVVERQAIPEQTTFEQMVARAAALTATPQVDKVVLSRLIDITTDAAIDSGVLLERLIAQNPVSYNFHVPLADGGVLLGASPELLLRKDGERFSSIPLAGSARRQPDEVLDREAGNRLLASEKDRHEHELVTQAMKEVLRERSSELHVPSSPQLITTPTLWHLATPFEGKANSQENALTLACLLHPTPALSGFPHQAATQVIAELEPFDRELFGGIVGWCDSEGNGEWVVTIRCAKLRENQVRLFAGAGIVPASSPLGEWRETGVKLSTMLNVFGLH,soluble
9,MTITSLDGYRWLKNDIIRGNFQPDEKLRMSLLTSRYALGVGPLREALSQLVAERLVTVVNQKGYRVASMSEQELLDIFDARANMEAMLVSLAIARGGDEWEADVLAKAHLLSKLEACDASEKMLDEWDLRHQAFHTAIVAGCGSHYLLQMRERLFDLAARYRFIWLRRTVLSVEMLEDKHDQHQTLTAAVLARDTARASELMRQHLLTPIPIIQQAMAGN,soluble
10,MGSDKIHHHHHHGCEKEKSHTVLELFSESQSLSPKKDFYVNEDSIAIIEGLSCDGKNLIVNDYHSGCCYTLFDKKSGEYIARFGTIGQGPAELPSPCYGYLTESDFTVFDDQTRIVMKYSLDSLRNSRKKDGSPVRLAQYKIPEAQISKLIAIDDTTFLCAGTYKSRYQYLLFNKNDSVLDYGVDVYNAADSAFQTYTRYLSNQGNLVMNPEKHTFAGSINFSSNIDFFEIVNNKIELIKSLRLGDPINKPVNEEGIYYVDLTENTQTGYIDLSATSKYVYALYSDKKMYENNRKSDTVLVFDWDGNPIKKYSLDTDAYYIAVDSTQQSLFAAVKNSSSGWKIICYALD,not soluble
11,MVIMSSTFMGYERENGRIGTRNHVLIIPVDDLSNTVAAAVENNIFGTRAILHPYGRLQFGADLDLTFRTLAGYGRNPNVASAIVVGIEDNWTNRIADQISQTGKHVETVSIEGSGDLKAIEKASRLAKEMAQESSTKTRKEFDVSNLIVSTKCGESDTTSGLASNPTVGVVFDRLVDEGATVIFGETSELTGAEKYIAEKMANNELKDKFMKIFNDYQDVIKSQGVDLLGSQPTEGNIKGGLSTIEEKALGNIQKAGTKKITGVLDYAEEPKSKGLNFMNTSSAAAEAVTLFAAAGAVVHLFTTGQGNIVGNHILPVIKTTANPKTAKNMAEHIDLDLSGLLKFEYTLKDAGDKLYNLLLETASGKLTSNEVLKHYEFALTKLYISA,not soluble
12,MSLSIISQIEACDFERLYEIEQQAHLVPWSFGTLKNNQGERYLNLKLIENNQIIGFAICQTVLDEATLFNIAILPTYQGCGFGKLLLGKLIFQLKEKGVQTLWLEVRESNSARFLYEKIGFNEVDIRKNYYPKPSGGRENAVVMACYLEGHHHHHH,not soluble
13,MSLKWIDSHIHVDQYKDEEKSKLLKDVEHSKEIKGLIAVSMNYQSSKETVSLAKRYPFVHPAIGFHPEQPIHKEECEKIYKLIEEHVEDIVAIGEVGLPYYLRKEDKRIAVNSYISVLQRFVELASKYDLPIILHAVYEDADIVCDLLEKYKVSRAHFHWFKGSETTMKRMMRNGYYISITPDVLHKEKIRKIVSYYPLEYMMVETDGPWEFQDDVMTHPGMIREVLKEISVIKNMSVDKVMKTIYENTIQFYPTLTGNKTPTSKFDEGHHHHHH,not soluble
14,MKKGCKYGTHRVIEPAGVLPQPAKKISNDMEIFSNEILIDVIALNIDSASFTQIEEEAGHDVEKVKAKIKEIVAERGKMQNPVTGSGGMLIGTVEKIGDDLVGKTDLKVGDKIATLVSLSLTPLRIDEIINIKPEIDRVEIKGKAILFESGIYAVLPKDMPENLALAALDVAGAPAQVAKLVKPCQSVAILGSAGKSGMLCAYEAVKRVGPTGKVIGVVRNDKEKALLQRVSDKVKIVIADATKPMDVLHAVLEANDAKEVDVAINCVNVPNTEMSTILPVKEFGIAYFFSMATGFSKAALGAEGVGKDITMIVGNGYTVDHAAITLEELRESAVLREIFNEIYLLEHHHHHH,soluble
15,MAVTREDLEQNRLRAALGDSPVASTLLTEAALEASLASTLARLSAAPCEGQDAWVFGYGSLIWNPMIFHTEVARATVRGYHRGFYLYSRINRGTWDNPGLVLGLDRGGSCSGVAFRVPRAHAEREFRVLWRREMLTGAYLPRWLPTEIHGERILALAFVMNRTHEAYAGRLPDERVVGCLHKAVGLYGPAREYLQRTLIGLASNGLHDPYLDRLWQRLQAMDINAANAPSQTADTDGTGPLPDPYLSALEHHHHHH,not soluble
16,MGSDKIHHHHHHAQTPVEKGLKSINRQAAEAYIGFLADDELQGREAGFHGSRVAARYIASLLKEMGIRPLGESYYQPFDAYRKERQQKGRLEVHPDSIAKLKQVVHQKLSMNNVLGMIPGKKTNEYVIVGAHFDHLGIDPALDGDQIYNGADDNASGVSAVLQIAKAFVVSGQQPERNVIFAFWDGEEKGLLGSKYFVQECPFINQVKGYLNFDMIGRNNQPQNPKHVVYFYTEANPAFGRWLKEDIKKYGLQLEPNYRPWDKPVGGSDNGSFAKAGIPIIWYHTDGHPDYHQPSDHADRLNWDKVVEISKASFLNVWNLANEKDY,not soluble
17,MENGEVLISGYRIPYSYAAMPGVKKNLVIIDIKGDEIWQKLRAADRINEWKINVYIPHFIAGSKEVVDSEPSSNLDSAGEFYYNFVQAMRLKNVMLMGEGINADVALKCSMIHPERFSNVIAIDGTGYDGYAEELYRVQKPVLLVWGGARGYRETMIGQSYHDLIAGSVFKVFDNSKRPLEDSTDRFFSMLKNYIAVD,not soluble
18,MGSDKIHHHHHHMPIAIYQGHHHSLAPADINIVIDVIRAFTVAHYAFIGGAKEILLVRTADEAFALKDTYPDYVLTGEEKGVGISGFDLDNSPKRMAGQNMTDKSLIQKTTNGVTAALGALNAKHLFVTGFSNAKTTAQHVKKLVANDCVINIVASHPSGDDDMACAEYIKGIIEGTNVVTAAEAIERIKGSSVAEKFFDCRQPLFDSEDIVYCTKELTGDFVMKVKQDGEVPTIERVII,not soluble
19,MTNPGDGAAGAVDCATLDHWRPRLAAIAAAAGQDDAAHDLGHLRRVWGAARAMLQAHPEADALVVLAASYLHDLVNLPKNHPERHLASRQAAAAARERLARAGFPAARLDAVAHAIEAHSFSAGIAPRTIEARIVQDADRLDALGPVGLARMFHVGGSLGRALAHPSDPLAAQRALDDSRYTLDHIEAKLARLPHGMQTEAGRRLGEQRLAWLRDFRAAFAAQWGGGQLRLEHHHHHH,soluble
20,GPGSMLHDAPWHLSLAHRCLAPHGVVAIMGYATRVCVVAPEAARRDADDFMEDLQRTAREAAKMKDSKELRVALGRAIDISSSLDAGHADMYFPFRSTKRRWFTSEYAATPAQLAASYRALPEYQLLSREMPRYRQALISGRQKVQVGEETEKDEPVNVFRRQHGAEPLEVLQGCLQAQVMSLHGRNTPAMPPLRVQVRHFIITCSSRSVNAASEPFQLRSLRREIPQLK,not soluble
21,SLNEVQQAVDMQRRQLLQRLGKDFDPSMLDDKLLKEAALKGLIERTLLLQAAKDDKFAFSDQALDQLILQTPEFQVDGKFNADRFDQVIRQMNYSRMQFRQMLGQEMLIGQLRAGLAGTGFVTDNELQSFARLEKQTRDFATLAIKADASKSSVSDDEVKAFYEGHKSEFMTPEQVVVEYVELKKSSFFDQVKVKQEDLEALYQKEIANLSEQRDAAHILIEVNDKVGDEQAKAKIDEIKARLAKGEDFAALAKEFSQDIGSAATGGDLGYAGRGVYDPAFEEALYALKQGEVSAPVKTPYGYHLIKLLGVQAPEVPSLESLKPKLEDELKKQMVEQRFVEATKDLESSAYEAADLSQPAQEMGLKVQTSQPFGRSGGDGIAANRQIVQTAFSAEVLEEAANSGAIELDPDTVVVLRVKEHNKPKEQPLEQVAANIRERLAAEKAAEEAQKRGEALIAELREGRTSSAAGESWKVVEAASRGHEGVDPKLLQAVFRMQRPEAKDKPSFSGVTLANGDYVVIRLNGVSEPEEAISDDEKAMYRRFLASRSGQADFAAFRRQLQD,not soluble
22,RQANELPGAPSQEEAVIAFGKFKLNLGTREMFREDEPMPLTSGEFAVLKALVSHPREPLSRDKLMNLARGREYSAMERSIDVQISRLRRMVEEDPAHPRYIQTVWGLGYVFVPDGSKA,soluble
23,MSLVEELLKITLKSDELHRRLGGGIPAGTIMLIEGDRGTGKSILSQRLLYGFLMNGYTSSYVSSQYTTVEYIKQMMSISYDVIPFLIRKKLVFVSLYPLLSGVSEERKFLSRLLGEPRLWDQDVVIIDSFSSVLSREQDVRAVRNFLMYIKKLSSLGKVIILTANPEELSRDVMFLLEEASTLLIRLNVRVFGGDLKNSATIVKYNNAKGAFQKIIPFRVEPKVGLVVEIAAVVEGHHHHHH,soluble
